From patent US9580733B2, “Methods of producing 6-carbon chemicals via methyl-ester shielded carbon chain elongation” (INVISTA North America S.á r.l., priority 2012, dated 2017)

B1: SEQ ID NO 5: Segniliparus rugosus carboxylate reductase (Genbank Accession No. EFV11917.1) (protein, listed as Segniliparus rugosus)
chain: MGDGEERAKRFFQRIGELSATDPQFAAAAPDPAVVEAVSDPSLSFTRYLDTLMRGYAERPALAHRVGAGYETISYGELWARVGAIAAAWQADGLAPGDFVATVGFTSPDYVAVDLAAARSGLVSVPLQAGASLAQLVGILEETEPKVLAASASSLEGAVACALAAPSVQRLVVFDLRGPDASESAADERRGALADAEEQLARAGRAVVVETLADLAARGEALPEAPLFEPAEGEDPLALLIYTSGSTGAPKGAMYSQRLVSQLWGRTPVVPGMPNISLHYMPLSHSYGRAVLAGALSAGGTAHFTANSDLSTLFEDIALARPTFLALVPRVCEMLFQESQRGQDVAELRERVLGGRLLVAVCGSAPLSPEMRAFMEEVLGFPLLDGYGSTEALGVMRNGIIQRPPVIDYKLVDVPELGYRTTDKPYPRGELCIRSTSLISGYYKRPEITAEVFDAQGYYKTGDVMAEIAPDHLVYVDRSKNVLKLSQGEFVAVAKLEAAYGTSPYVKQIFVYGNSERSFLLAVVVPNAEVLGARDQEEAKPLIAASLQKIAKEAGLQSYEVPRDFLIETEPFTTQNGLLSEVGKLLRPKLKARYGEALEARYDEIAHGQADELRALRDGAGQRPVVETVVRAAVAISGSEGAEVGPEANFADLGGDSLSALSLANLLHDVFEVEVPVRIIIGPTASLAGIAKHIEAERAGASAPTAASVHGAGATRIRASELTLEKFLPEDLLAAAKGLPAADQVRTVLLTGANGWLGRFLALEQLERLARSGQDGGKLICLVRGKDAAAARRRIEETLGTDPALAARFAELAEGRLEVVPGDVGEPKFGLDDAAWDRLAEEVDVIVHPAALVNHVLPYHQLFGPNVVGTAEIIRLAITAKRKPVTYLSTVAVAAGVEPSSFEEDGDIRAVVPERPLGDGYANGYGNSKWAGEVLLREAHELVGLPVAVFRSDMILAHTRYTGQLNVPDQFTRLVLSLLATGIAPKSFYQQGAAGERQRAHYDGIPVDFTAEAITTLGAEPSWFDGGAGFRSFDVFNPHHDGVGLDEFVDWLIEAGHPISRIDDHKEWFARFETAVRGLPEAQRQHSLLPLLRAYSFPHPPVDGSVYPTGKFQGAVKAAQVGSDHDVPHLGKALIVKYADDLKALGLL
B2: SEQ ID NO. 17: Escherichia coli pimeloyl-[acp] methyl ester esterase (GenBank Accession No. AAC76437.1), C-terminal His-tagged (protein, listed as Escherichia coli)
chain: MNNIWWQTKGQGNVHLVLLHGWGLNAEVWRCIDEELSSHFTLHLVDLPGFGRSRGFGALSLADMAEAVLQQAPDKAIWLGWSLGGLVASQIALTHPERVQALVTVASSPCFSARDEWPGIKPDVLAGFQQQLSDDFQRTVERFLALQTMGTETARQDARALKKTVLALPMPEVDVLNGGLEILKTVDLRQPLQNVSMPFLRLYGYLDGLVPRKVVPMLDKLWPHSESYIFAKAAHAPFISHPAEFCHLLVALKQRV
modifications: C-terminal His tag
B3: SEQ ID NO 7: Segniliparus rotundus carboxylate reductase (Genbank Accession No. ADG98140.1); in Example 2 the same label is printed for a ω-transaminase (protein, listed as Segniliparus rotundus)
chain: MTQSHTQGPQASAAHSRLARRAAELLATDPQAAATLPDPEVVRQATRPGLRLAERVDAILSGYADRPALGQRSFQTVKDPITGRSSVELLPTFDTITYRELRERATAIASDLAHHPQAPAKPGDFLASIGFISVDYVAIDIAGVFAGLTAVPLQTGATLATLTAITAETAPTLFAASIEHLPTAVDAVLATPSVRRLLVFDYRAGSDEDREAVEAAKRKIADAGSSVLVDVLDEVIARGKSAPKAPLPPATDAGDDSLSLLIYTSGSTGTPKGAMYPERNVAHFWGGVWAAAFDEDAAPPVPAINITFLPLSHVASRLSLMPTLARGGLMHFVAKSDLSTLFEDLKLARPTNLFLVPRVVEMLYQHYQSELDRRGVQDGTREAEAVKDDLRTGLLGGRILTAGFGSAPLSAELAGFIESLLQIHLVDGYGSTEAGPVWRDGYLVKPPVTDYKLIDVPELGYFSTDSPHPRGELAIKTQTILPGYYKRPETTAEVFDEDGFYLTGDVVAQIGPEQFAYVDRRKNVLKLSQGEFVTLAKLEAAYSSSPLVRQLFVYGSSERSYLLAVIVPTPDALKKFGVGEAAKAALGESLQKIARDEGLQSYEVPRDFIIETDPFTVENGLLSDARKSLRPKLKEHYGERLEAMYKELADGQANELRDIRRGVQQRPTLETVRRAAAAMLGASAAEIKPDAHFTDLGGDSLSALTFSNFLHDLFEVDVPVGVIVSAANTLGSVAEHIDAQLAGGRARPTFATVHGKGSTTIKASDLTLDKFIDEQTLEAAKHLPKPADPPRTVLLTGANGWLGRFLALEWLERLAPAGGKLITIVRGKDAAQAKARLDAAYESGDPKLAGHYQDLAATTLEVLAGDFSEPRLGLDEATWNRLADEVDFISHPGALVNHVLPYNQLFGPNVAGVAEIIKLAITTRIKPVTYLSTVAVAAGVEPSALDEDGDIRTVSAERSVDEGYANGYGNSKWGGEVLLREAHDRTGLPVRVFRSDMILAHQKYTGQVNATDQFTRLVQSLLATGLAPKSFYELDAQGNRQRAHYDGIPVDFTAESITTLGGDGLEGYRSYNVFNPHRDGVGLDEFVDWLIEAGHPITRIDDYDQWLSRFETSLRGLPESKRQASVLPLLHAFARPGPAVDGSPFRNTVFRTDVQKAKIGAEHDIPHLGKALVLKYADDIKQLGLL

Experiments:
Type in all cases: biochemical
[1] = Carboxylate reductase activity assay, adipate to adipate semialdehyde; conditions: enhanced by gene product of sfp, 2 mM adipate, room temperature, 20 min, vs empty vector control, FIG. 10
Experimental: A nucleotide sequence encoding a HIS-tag was added to the genes from Segniliparus rugosus and Segniliparus rotundus that encode the carboxylate reductases of SEQ ID NOs: 5 and 7, respectively (see FIGS. 7C and 7E), such that N-terminal HIS tagged carboxylate reductases could be produced. Each of the modified genes was cloned into a pET Duet expression vector along with a sfp gene encoding a HIS-tagged phosphopantetheine transferase from Bacillus subtilis, both under the T7 promoter. Each expression vector was transformed into a BL21[DE3] E. coli host and the resulting recombinant E. coli strains were cultivated at 37° C. in a 250 mL shake flask culture containing 50 mL LB media and antibiotic selection pressure, with shaking at 230 rpm. Each culture was induced overnight at 37° C. using an auto-induction media.
The pellet from each induced shake flask culture was harvested via centrifugation. Each pellet was resuspended and lysed via sonication, and the cell debris was separated from the supernatant via centrifugation. […]
Enzyme activity assays (i.e., from adipate to adipate semialdehyde) were performed in triplicate in a buffer composed of a final concentration of 50 mM HEPES buffer (pH=7.5), 2 mM adipate, 10 mM MgCl2, 1 mM ATP and 1 mM NADPH. […] The consumption of NADPH was monitored by absorbance at 340 nm.

[2] = Pimeloyl-[acp] methyl ester methylesterase activity assay, adipyl-CoA methyl ester to adipyl-CoA; conditions: 10 μM enzyme, 5 mM adipyl-CoA methyl ester, pH 7.0, 30° C., 1 h, FIG. 20
Experimental: A sequence encoding an C-terminal His-tag was added to the gene from Escherichia coli encoding the pimeloyl-[acp] methyl ester methylesterase of SEQ ID NO: 17 (see FIG. 7G) such that C-terminal HIS tagged pimeloyl-[acp] methyl ester methylesterase could be produced. The resulting modified gene was cloned into a pET28b+ expression vector under control of the T7 promoter and the expression vector was transformed into a BL21[DE3] E. coli host. The resulting recombinant E. coli strain was cultivated at 37° C. in a 500 mL shake flask culture containing 100 mL LB media and antibiotic selection pressure, with shaking at 230 rpm. Each culture was induced overnight at 18° C. using 0.3 mM IPTG.
The pellet from each induced shake flask culture was harvested via centrifugation. Each pellet was resuspended and lysed via sonication. The cell debris was separated from the supernatant via centrifugation. The pimeloyl-[acp] methyl ester methylesterase was purified from the supernatant using Ni-affinity chromatography, buffer exchanged and concentrated into 20 mM HEPES buffer (pH=7.5) via ultrafiltration and stored at 4° C.
Enzyme activity assays converting adipyl-CoA methyl ester to adipyl-CoA were performed in triplicate in a buffer composed of a final concentration of 25 mM Tris.HCl buffer (pH=7.0) and 5 [mM] adipyl-CoA methyl ester. […] The formation of adipyl-CoA was quantified via LC-MS.

[3] = ω-transaminase activity assay, reverse direction, 6-aminohexanoate to adipate semialdehyde; conditions: cell free extract, 10 mM 6-aminohexanoate, 10 mM pyruvate, 25° C., 24 h, vs empty vector control, FIG. 15
Experimental: (§1) A nucleotide sequence encoding a His-tag was added to the genes from Chromobacterium violaceum, Pseudomonas aeruginosa, Pseudomonas syringae, Rhodobacter sphaeroides, and Vibrio fluvialis encoding the ω-transaminases of SEQ ID NOs: 7, 8, 9, 10 and 12, respectively (see FIGS. 7E and 7F) such that N-terminal HIS tagged ω-transaminases could be produced. Each of the resulting modified genes was cloned into a pET21a expression vector under control of the T7 promoter and each expression vector was transformed into a BL21[DE3] E. coli host. The resulting recombinant E. coli strains were cultivated at 37° C. in a 250 mL shake flask culture containing 50 mL LB media and antibiotic selection pressure, with shaking at 230 rpm. Each culture was induced overnight at 16° C. using 1 mM IPTG.
(§2) The pellet from each induced shake flask culture was harvested via centrifugation. Each pellet was resuspended and lysed via sonication. The cell debris was separated from the supernatant via centrifugation and the cell free extract was used immediately in enzyme activity assays.
Enzyme activity assays in the reverse direction (i.e., 6-aminohexanoate to adipate semialdehyde) were performed in a buffer composed of a final concentration of 50 mM HEPES buffer (pH=7.5), 10 mM 6-aminohexanoate, 10 mM pyruvate and 100 μM pyridoxyl 5′ phosphate. Each enzyme activity assay reaction was initiated by adding cell free extract of the ω-transaminase gene product or the empty vector control to the assay buffer containing the 6-aminohexanoate and incubated at 25° C. for 24 h, with shaking at 250 rpm. The formation of L-alanine from pyruvate was quantified via RP-HPLC.

[4] = ω-transaminase activity assay, forward direction, adipate semialdehyde to 6-aminohexanoate; conditions: cell free extract, 10 mM adipate semialdehyde, 10 mM L-alanine, 25° C., 4 h, vs empty vector control, FIG. 16
Experimental: as §1, §2
Enzyme activity in the forward direction (i.e., adipate semialdehyde to 6-aminohexanoate) was confirmed for the transaminases of SEQ ID NO 7, SEQ ID NO 8, SEQ ID NO 9, SEQ ID NO 10 and SEQ ID NO 12. Enzyme activity assays were performed in a buffer composed of a final concentration of 50 mM HEPES buffer (pH=7.5), 10 mM adipate semialdehyde, 10 mM L-alanine and 100 μM pyridoxyl 5′ phosphate. Each enzyme activity assay reaction was initiated by adding a cell free extract of the ω-transaminase gene product or the empty vector control to the assay buffer containing the adipate semialdehyde and incubated at 25° C. for 4 h, with shaking at 250 rpm. The formation of pyruvate was quantified via RP-HPLC.

[5] = Carboxylate reductase activity assay, adipate semialdehyde to hexanedial; conditions: enhanced by gene product of sfp, 2 mM adipate semialdehyde, room temperature, 20 min, vs empty vector control, FIG. 13
Experimental: The N-terminal His-tagged carboxylate reductase of SEQ ID NO 7 (see Example 4 and FIG. 7E) was assayed using adipate semialdehyde as substrate. The enzyme activity assay was performed in triplicate in a buffer composed of a final concentration of 50 mM HEPES buffer (pH=7.5), 2 mM adipate semialdehyde, 10 mM MgCl2, 1 mM ATP and 1 mM NADPH. The enzyme activity assay reaction was initiated by adding purified carboxylate reductase and phosphopantetheine transferase or the empty vector control to the assay buffer containing the adipate semialdehyde and then incubated at room temperature for 20 min. The consumption of NADPH was monitored by absorbance at 340 nm.

| Molecule | carboxylate reductase activity for converting adipate to adipate semialdehyde (consumption of NADPH, absorbance at 340 nm) [1] | conversion of adipyl-CoA methyl ester to adipyl-CoA by pimeloyl-[acp] methyl ester methylesterase (LC-MS) [2] | ω-transaminase activity for converting 6-aminohexanoate to adipate semialdehyde (formation of L-alanine from pyruvate, RP-HPLC) [3] | ω-transaminase activity for converting adipate semialdehyde to 6-aminohexanoate (formation of pyruvate, RP-HPLC) [4] | carboxylate reductase activity for converting adipate semialdehyde to hexanedial (consumption of NADPH, absorbance at 340 nm) [5] |
| --- | --- | --- | --- | --- | --- |
| B1 | accepted adipate as substrate |  |  |  |  |
| B2 |  | accepted adipyl-CoA methyl ester as substrate |  |  |  |
| B3 | accepted adipate as substrate |  | accepted 6-aminohexanote as substrate | accepted adipate semialdehyde as substrate | accepted adipate semialdehyde as substrate |
